The EC50 (read off the curve) is the concentration at which the effect is half-maximal. Low values mean higher potency in that assay, high ones lower potency in that assay.

This is an account of results in patent publication US10450368.

Test [1] concerns the target Centromere B (UniProt P07199). Put plainly: AtheNA, Ab 6.25 ug/ml.
For test [2], the target named is Jo-1 (UniProt P12081). Put plainly: AtheNA, Ab 6.25 ug/ml.
In test [3] the target is Centromere B (UniProt P07199). Put plainly: AtheNA, Ab 25 ug/ml.
Chain of Centromere B (P07199 whole entry): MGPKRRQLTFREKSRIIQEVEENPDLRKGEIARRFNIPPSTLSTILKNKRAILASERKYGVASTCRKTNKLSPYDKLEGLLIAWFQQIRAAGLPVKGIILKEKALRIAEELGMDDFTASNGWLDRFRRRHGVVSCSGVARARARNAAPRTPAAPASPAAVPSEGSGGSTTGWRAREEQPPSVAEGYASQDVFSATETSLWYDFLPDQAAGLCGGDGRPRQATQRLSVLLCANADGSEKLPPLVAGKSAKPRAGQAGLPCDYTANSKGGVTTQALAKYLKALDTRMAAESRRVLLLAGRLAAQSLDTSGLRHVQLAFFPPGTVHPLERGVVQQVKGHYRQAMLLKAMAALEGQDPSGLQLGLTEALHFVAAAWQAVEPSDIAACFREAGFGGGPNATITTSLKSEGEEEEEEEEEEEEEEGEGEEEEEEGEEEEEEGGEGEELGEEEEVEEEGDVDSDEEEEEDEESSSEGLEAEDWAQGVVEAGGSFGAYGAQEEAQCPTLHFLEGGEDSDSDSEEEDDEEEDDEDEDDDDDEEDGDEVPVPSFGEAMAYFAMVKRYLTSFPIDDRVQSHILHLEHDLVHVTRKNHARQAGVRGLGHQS
For test [4], the target named is Jo-1 (UniProt P12081). Briefly: AtheNA, Ab 25 ug/ml.
Substrate in test [5]: SSB (UniProt P05455)
Briefly: AtheNA, Ab 25 ug/ml.

Test [6] deals with Centromere B (UniProt P07199). Briefly: AtheNA, Ab 50 ug/ml.
Test [7] addresses Jo-1 (UniProt P12081). Briefly: AtheNA, Ab 50 ug/ml.
Substrate in test [8]: SSB (UniProt P05455)
Put plainly: AtheNA, Ab 6.25 ug/ml.

Substrate in test [9]: SSB (UniProt P05455)
Put plainly: AtheNA, Ab 50 ug/ml.

Substrate in test [10]: SSB (UniProt P05455)
Briefly: AtheNA, Ab 12.5 ug/ml.

Test [11] concerns the target Centromere B (UniProt P07199). Put plainly: AtheNA, Ab 12.5 ug/ml.
The target of test [12] is Jo-1 (UniProt P12081). Put plainly: AtheNA, Ab 12.5 ug/ml.
Test [13] addresses BG505 SOSIP.664 gp140 trimer (HIV-1). Briefly: negative stain EM, 10 molar excess of Fab.
Test [14] deals with B41 SOSIP.664 gp140 trimer (HIV-1). Briefly: negative stain EM, 10 molar excess of Fab.
Test [15] deals with CH505.TF mutant gp120 M6 (HIV-1). Briefly: direct-binding ELISA (OD450), panel 'CH505.TF gp120 M6'. Background: In an ELISA, binding on a coated surface is turned into a signal by an enzyme label.
Test [16] concerns the target CH505.TF mutant gp120 M8 (HIV-1). Put plainly: direct-binding ELISA (OD450), panel 'CH505.TF gp120 M8'.
Test [17] deals with Con S gp120. Briefly: direct-binding ELISA (OD450), panel 'Con S gp120'.
Test [18] deals with HIV-1 CH505 transmitted/founder gp120 Env (HIV-1). Briefly: direct-binding ELISA (OD450), panel 'CH505.TF gp120'.

Chain of SSB (P05455 whole entry): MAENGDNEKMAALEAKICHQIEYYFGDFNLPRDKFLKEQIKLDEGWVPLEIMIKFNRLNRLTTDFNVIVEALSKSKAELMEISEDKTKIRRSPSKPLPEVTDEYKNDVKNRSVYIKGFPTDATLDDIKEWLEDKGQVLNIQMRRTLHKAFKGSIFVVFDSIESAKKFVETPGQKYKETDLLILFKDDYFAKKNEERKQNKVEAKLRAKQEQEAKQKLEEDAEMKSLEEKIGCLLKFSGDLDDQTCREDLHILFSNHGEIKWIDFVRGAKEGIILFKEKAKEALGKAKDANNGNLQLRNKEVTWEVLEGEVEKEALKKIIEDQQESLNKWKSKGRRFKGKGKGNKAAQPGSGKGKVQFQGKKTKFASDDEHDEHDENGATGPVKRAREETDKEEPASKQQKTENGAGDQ
Chain of Jo-1 (P12081 whole entry): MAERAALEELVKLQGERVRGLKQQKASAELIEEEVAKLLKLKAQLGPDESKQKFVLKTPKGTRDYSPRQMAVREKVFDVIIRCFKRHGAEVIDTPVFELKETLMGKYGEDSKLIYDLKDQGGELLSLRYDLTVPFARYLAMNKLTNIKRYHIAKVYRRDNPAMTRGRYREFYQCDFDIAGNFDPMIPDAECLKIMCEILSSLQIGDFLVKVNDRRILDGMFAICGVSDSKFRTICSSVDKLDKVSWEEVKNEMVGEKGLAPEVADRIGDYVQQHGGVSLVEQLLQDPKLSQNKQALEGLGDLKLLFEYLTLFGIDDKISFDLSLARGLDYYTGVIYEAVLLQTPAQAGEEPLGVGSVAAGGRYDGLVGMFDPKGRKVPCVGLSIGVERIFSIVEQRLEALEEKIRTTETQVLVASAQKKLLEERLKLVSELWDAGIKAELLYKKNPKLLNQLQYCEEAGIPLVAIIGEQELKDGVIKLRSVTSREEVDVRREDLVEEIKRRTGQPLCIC

B1: CH236 (antibody, V domains shown)
VH: QVQLVQSGAAVKRPGASVTISCRASGYTFTTYYIHWVRQAPGQRLELMGMIDPSRGRTDYAQKFQGRVTMSRDTSTSTLYMELRSLRPDDTALYYCVRNVGTEGSLLHYDYWGQGTLVTVSS
VL: EIVLTQSPATLSVSPGERVTLSCRASQSVRNNLAWYRQKRGQAPRLLIYGASTRATGIPARFSGSGSGTEFTLTISSMQSEDFAVYYCQQYNNWWTFGQGTKVEIK
B1: the AtheNA signal (relative luminescence units) in test [1] was 208; in test [2], 7; in test [3] it was 129; in test [4], 72; in test [5] it was 175; in [6], 84. The AtheNA signal (relative luminescence units) in test [7] stood at 145; in [8], 15; in test [9] it was 207; in test [10], 63; in test [11] it was 233; in test [12], 19.

B2: CH491 (antibody, V domains shown)
VH: QVQLVQSGAAVKRPGASVTISCRASGYTFTTYYIHWVRQAPGQGLELMGWINPRGGRTDYSYRFEDRVSMYRDTSMSIVYMDLRNLKSADTAVYYCVRNVGTSGSLLHYDFWGQGSLVTVSS
VL: EIVLTQSPATLSVSPGERVTLSCRASQSVRNNLAWYRQKRGQAPRLLIYGASTRATGIPARFSGSGSGTEFTLTISSMQSEDFAVYYCQQYNNWWTFGQGTKVEIK
For B2, the AtheNA signal was found to be 56 in [2]; 118 in [4]; 95 in [5]; 169 in test [7]; 42 in test [8]; 144 in test [9]. Besides, the figures for the AtheNA signal in test [10] and in test [12] were 60 and 79, respectively.

B3: CH493 (antibody, V domains shown)
VH: QVRLLQYGGGVKRPGASMTISCVASGYNFNDYYIHWVRQAPGQGLELMGWIDPSGGRTDYAGAFGDRVSMYRDKSMNTLYMDLRSLRSGDTAMYYCVRNVGTAGSLLHYDHWGLGVMVTVSS
VL: EIVLTQSPATLSVSPGERVTLSCRASQSVRNNLAWYRQKRGQAPRLLIYGASTRATGIPARFSGSGSGTEFTLTISSMQSEDFAVYYCQQYNNWWTFGQGTKVEIK
B3: the AtheNA signal was found to be 177 in [1]; 54 in [2]; 129 in [3]; 167 in [4]; 94 in [6]; 198 in [7]. The AtheNA signal came to 165 in [11] and 102 in test [12].

B4: CH235.9 Fab (Fab, V domains shown)
VH: QVRLLQYGGGVKRPGASMTISCVASGYNFNDYYIHWVRQAPGQGLELMGWIDPSGGRTDYAGAFGDRVSMYRDKSMNTLYMDLRSLRSGDTAMYYCVRNVGTAGSLLHYDHWGLGVMVTVSS
VL: EIVLTQSPATLSVSPGERVTLSCRASQSVRNNLAWYRQKRGQAPRLLIYGASTRATGIPARFSGSGSGTEFTLTISSMQSEDFAVYYCQQYNNWWTFGQGTKVEIK
For B4, the stoichiometry (Fabs per trimer) (Fabs per trimer) in test [13] and in test [14] was 3 throughout.

B5: CH235 (antibody, V domains shown)
VH: QVQLVQSGAEVKKPGASVTVSCQASGYTFTNYYVHWVRQAPGQGLQLMGWIDPSWGRTNYAQNFQGRITMTRDTSTSTVYMEMRSLRSEDTAVYYCARNVATEGSLLHYDYWGQGTLVTVSA
VL: EIVLTQSPATLSVSPGERATLSCRASQSVRSNLAWYQQRPGQAPRLLIYGTSTRATGVPARFSGRGSGTEFTLAISSMQSEDFAVYLCLQYNNWWTFGQGTKVEIK
With B5, the AtheNA signal (relative luminescence units) came to 3 in test [1], 6 in test [3] and 5 in test [11].

B6: CH235 Fab (Fab, V domains shown)
VH: QVQLVQSGAEVKKPGASVTVSCQASGYTFTNYYVHWVRQAPGQGLQLMGWIDPSWGRTNYAQNFQGRITMTRDTSTSTVYMEMRSLRSEDTAVYYCARNVATEGSLLHYDYWGQGTLVTVSA
VL: EIVLTQSPATLSVSPGERATLSCRASQSVRSNLAWYQQRPGQAPRLLIYGTSTRATGVPARFSGRGSGTEFTLAISSMQSEDFAVYLCLQYNNWWTFGQGTKVEIK
On to B6, for which the stoichiometry (Fabs per trimer) (Fabs per trimer) is 1 in test [13] and 2 in [14].

B7: CH492 (antibody, V domains shown)
VH: QVQLVQSGAAVKKPGASVRVSCKASGYTFTSSHIHWVRQAPGQGPEWMGMVDPRFGRPTYAQKFQGRVAMTRDIYTSTVYMDLRSLKSEDTAIYFCVRNAETEGSLLHIEYWGQGTRVTVSS
VL: EIVLTQSPATLSVSPGERATLSCRASQSVRSNIAWYQQKPGQAPRLLIHGASTRATGIPGRFSGSGSGPEFTLAISSVQSEDFAVYYCQQYNDWWTFGQGTKVEIK
B7: the EC50 (read off the curve) in [15] turned out to be 0.5 µg/mL; in test [16], 6 µg/mL; in test [17] it was 5 µg/mL; in [18], 0.5 µg/mL.

B8: CH241 (antibody, V domains shown)
VH: QVQLVQSGAAVKKPGASVRVSCKASGYTFTSSHIHWVRQAPGQGPEWMGMIDPSVGRPTTAGKFQGRVTMTRDRYTSTAYMDLSSLRSEDTAVYYCARSVETTGSLLYFDYWGQGTLITVSS
VL: EIVLTQSPATLSVSPGERATLSCRASQSVRSNIAWYQQKPGQAPRLLIHGASTRATGIPGRFSGSGSGPEFTLAISSVQSEDFAVYYCQQYNDWWTFGQGTKVEIK
With B8, the AtheNA signal (relative luminescence units) in test [1] was found to be 6; in test [3], 14; in [11] it was 8.

B9: CH235.12 Fab (Fab, V domains shown)
VH: QVRLAQYGGGVKRLGATMTLSCVASGYTFNDYYIHWVRQAPGQGFELLGYIDPANGRPDYAGALRERLSFYRDKSMETLYMDLRSLRYDDTAMYYCVRNVGTAGSLLHYDHWGSGSPVIVSS
VL: EIVLTQSPATLSASPGERVTLTCRASRSVRNNVAWYQHKGGQSPRLLIYDASTRAAGVPARFSGSASGTEFTLAISNLESEDFTVYFCLQYNNWWTFGQGTRVDIK
Take B9: the stoichiometry (Fabs per trimer) (Fabs per trimer) in [13] and in [14] was 3 each time.
